Experiments:
hnRNP A1 [1] = target: hnRNP A1 (UniProt P09651); assay: competition; settings: Footprinting: RNA refolded in 2 mM MgCl2, 80 mM NaCl, 20 mM Tris-HCl pH 7.2; probing at 37 C for 10 min; EMSA and pull-down buffers not in the material
hnRNP A1 [2] = target: hnRNP A1 (UniProt P09651); assay: footprinting (Pb(II)); settings: Footprinting: RNA refolded in 2 mM MgCl2, 80 mM NaCl, 20 mM Tris-HCl pH 7.2; probing at 37 C for 10 min; EMSA and pull-down buffers not in the material

hnRNP A1, sequence (P09651 whole entry): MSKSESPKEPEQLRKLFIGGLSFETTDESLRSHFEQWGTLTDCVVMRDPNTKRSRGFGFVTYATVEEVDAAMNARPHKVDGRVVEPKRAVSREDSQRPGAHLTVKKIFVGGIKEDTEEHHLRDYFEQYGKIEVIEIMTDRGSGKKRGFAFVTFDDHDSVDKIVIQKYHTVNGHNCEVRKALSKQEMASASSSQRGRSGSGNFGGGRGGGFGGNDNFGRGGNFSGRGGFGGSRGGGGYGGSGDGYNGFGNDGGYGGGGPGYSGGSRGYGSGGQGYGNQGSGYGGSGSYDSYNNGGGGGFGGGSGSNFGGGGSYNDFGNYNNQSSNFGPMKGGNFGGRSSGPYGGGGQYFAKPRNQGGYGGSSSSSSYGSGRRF

| Sequence | binding (hnRNP A1 [1]) | binding (hnRNP A1 [2]) |
| --- | --- | --- |
| GGCGUGCAGGGCCUGCUGAUGUUGAGUGCUUUUUGUUCUAAGGUGCAUCUAGUGCAGAUAGUGAAGUAGAUUAGCAUCUACUGCCCUAAGUGCUCCUUCUGGCAUAAGAAGUUAUGUAUUCAUCCAAUAAUUC [pri-miR-18a] | binds | – |
| GGUGUUCUAAGGUGCAUCUAGUGCAGAUAGUGAAGUAGAUUAGCAUCUACUGCCCUAAGUGCUCCUUCUGGCA [pri-miR-18a_73nt] | – | binds |

From paper PMC2631628
